B1: hCD27.15-6B (antibody, human IgG4 S228P, kappa, V domains shown)
VH: QVQLVQSGAEVKKPGASVKVSCKASGFIIKATYMHWVRQAPGQRLEWMGRIDPANGETKYDPKFQVRVTITADTSASTAYMELSSLRSEDTAVYYCARYAWYFDVWGQGTLVTVSS
VL: DIQMTQSPSSLSASVGDRVTITCRASENIYSFLAWYQQKPGKAPKLLIYHAKTLAEGVTSRFSGSGSGTDFTLTISSLQPEDSATYYCQHYYGSPLTFGQGTRLEIKR
notes: also called hCD27.15 (humanized 6B); humanized hCD27.15 (human IgG4, Clone 6B)
B2: hCD27.131A (mouse parental 131A) (antibody, mouse IgG1, V domains shown)
VH: QIQLVQSGPELKKPGETVKISCKASGYTFTNYGMNWVKQAPGKGLKWMGWINTNTGEPTYAEEFKGRFAFSLETSATTAYLQINNLKNEDTATYFCAREGDAMDYWGQGTSVTVSS
VL: QIVLTQSPAIMSASPGEKVTMTCSASSSVSYMHWYQQKSGTSPKRWIYDTSKLASGVPARFSGSGSGTSYSLTISSMEAEDAATYYCQQWNSYPFTFGSGTKLEIK
notes: Mouse IgG1 antibody; also called mouse hCD27.131A

What was measured:
Q41A = target: T1, Q41A; experiment: flow cytometry on CHO-K1 transfectants, cell hatched (loss of binding)
T1 construct: also called hCD27 Q41A
T1 receptor chain: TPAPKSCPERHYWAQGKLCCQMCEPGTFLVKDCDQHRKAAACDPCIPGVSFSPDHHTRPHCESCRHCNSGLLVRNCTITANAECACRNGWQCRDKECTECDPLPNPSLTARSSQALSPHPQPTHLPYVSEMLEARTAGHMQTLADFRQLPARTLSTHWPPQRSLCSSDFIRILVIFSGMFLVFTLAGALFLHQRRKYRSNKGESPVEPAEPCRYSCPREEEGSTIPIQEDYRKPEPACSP
Method: (§1) The ability of several anti-hCD27 antibodies to bind to a series of hCD27 alanine mutants was determined using CHO-K1 cells, transiently transfected pCI-neo empty vector, pCI-neo.hCD27 and several pCI-neo.CD27Ala mutant constructs.
(§2) Detached cells were transferred to 96 wells round-bottomed well plates at approximately 1.2×10⁵ cells/well. After spinning down the cells, discarding the supernatants and re-suspending the cells in the residual volume, the primary antibodies were added and incubated for 30 minutes at 4° C. Cells were washed three times with DPBS/BSA 1%, followed by centrifugation, discarding of the supernatants and re-suspension in the residual volume. […] After washing once, antibody binding was detected using the HTS plate reader (FACS Canto II) and FlowJo software for data analysis. Debris, dead cells and doublets were excluded from the analysis. Binding was expressed as the geometric mean of the FITC signal, relative to antibody binding to hCD27, which was set at 100%.

K31A [1] = target: T2, K31A; experiment: as above
T2 construct: also called hCD27 K31A
T2 receptor chain: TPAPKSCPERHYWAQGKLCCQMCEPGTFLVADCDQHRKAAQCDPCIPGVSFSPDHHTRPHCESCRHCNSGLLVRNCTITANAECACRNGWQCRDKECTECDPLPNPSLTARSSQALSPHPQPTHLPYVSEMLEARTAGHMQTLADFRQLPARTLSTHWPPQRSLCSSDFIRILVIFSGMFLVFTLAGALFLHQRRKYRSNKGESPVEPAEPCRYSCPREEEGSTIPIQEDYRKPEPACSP
Method: as §1, §2

D43A = target: T3, D43A; experiment: as above
T3 construct: also called hCD27 D43A
T3 receptor chain: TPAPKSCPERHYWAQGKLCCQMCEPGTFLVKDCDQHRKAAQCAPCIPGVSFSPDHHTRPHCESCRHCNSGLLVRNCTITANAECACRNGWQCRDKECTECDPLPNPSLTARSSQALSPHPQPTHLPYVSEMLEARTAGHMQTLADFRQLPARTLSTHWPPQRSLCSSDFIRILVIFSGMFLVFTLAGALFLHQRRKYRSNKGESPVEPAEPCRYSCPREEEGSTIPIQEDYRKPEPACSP
Method: as §1, §2

R93A = target: T4, R93A; experiment: flow cytometry on CHO-K1 transfectants, left sub-column
T4 construct: also called hCD27 R93A
T4 receptor chain: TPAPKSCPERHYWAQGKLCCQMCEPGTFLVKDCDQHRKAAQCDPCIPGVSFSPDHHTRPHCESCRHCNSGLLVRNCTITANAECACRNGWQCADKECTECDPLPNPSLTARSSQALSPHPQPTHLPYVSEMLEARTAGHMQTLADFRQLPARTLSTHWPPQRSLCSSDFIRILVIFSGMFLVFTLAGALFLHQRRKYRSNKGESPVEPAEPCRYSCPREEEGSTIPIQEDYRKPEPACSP
Method: (§3) The hCD27 variants that were tested are listed. Amino acids correspond to the UniProt P26842-1 sequence. Amino acids 1-20 constitute the signal peptide. Binding is expressed as the geometric mean of the FITC signal, relative to antibody binding to hCD27, which was set at 100%.
as §1, §2

N88A = target: T5, N88A; experiment: as above
T5 construct: also called hCD27 N88A
T5 receptor chain: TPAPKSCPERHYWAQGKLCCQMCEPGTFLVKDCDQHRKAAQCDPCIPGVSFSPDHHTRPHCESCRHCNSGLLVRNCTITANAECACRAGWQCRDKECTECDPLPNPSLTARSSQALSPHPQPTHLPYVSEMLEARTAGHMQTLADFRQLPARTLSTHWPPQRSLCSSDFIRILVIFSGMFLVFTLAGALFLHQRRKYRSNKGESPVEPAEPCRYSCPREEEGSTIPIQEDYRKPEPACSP
Method: as §3, §1, §2

G89A = target: T6, G89A; experiment: as above
T6 construct: also called hCD27 G89A
T6 receptor chain: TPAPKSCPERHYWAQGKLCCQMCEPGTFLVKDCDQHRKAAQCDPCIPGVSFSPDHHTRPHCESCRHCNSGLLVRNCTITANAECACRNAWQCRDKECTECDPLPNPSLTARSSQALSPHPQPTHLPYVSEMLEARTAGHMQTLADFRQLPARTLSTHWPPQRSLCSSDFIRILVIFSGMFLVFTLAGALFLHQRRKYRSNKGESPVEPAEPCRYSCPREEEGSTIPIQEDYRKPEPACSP
Method: as §3, §1, §2

K31A [2] = target: T2, K31A; experiment: as above
Method: as §3, §1, §2

E9A = target: T7, E9A; experiment: as above
T7 construct: also called hCD27 E9A
T7 receptor chain: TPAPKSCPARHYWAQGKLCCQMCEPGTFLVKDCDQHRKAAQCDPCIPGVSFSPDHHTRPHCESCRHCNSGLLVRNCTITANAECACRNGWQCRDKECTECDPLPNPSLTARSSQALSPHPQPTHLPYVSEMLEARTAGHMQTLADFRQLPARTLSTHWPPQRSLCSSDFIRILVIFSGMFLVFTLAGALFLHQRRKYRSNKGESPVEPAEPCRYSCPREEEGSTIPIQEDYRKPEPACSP
Method: as §3, §1, §2

R87A = target: T8, R87A; experiment: as above
T8 construct: also called hCD27 R87A
T8 receptor chain: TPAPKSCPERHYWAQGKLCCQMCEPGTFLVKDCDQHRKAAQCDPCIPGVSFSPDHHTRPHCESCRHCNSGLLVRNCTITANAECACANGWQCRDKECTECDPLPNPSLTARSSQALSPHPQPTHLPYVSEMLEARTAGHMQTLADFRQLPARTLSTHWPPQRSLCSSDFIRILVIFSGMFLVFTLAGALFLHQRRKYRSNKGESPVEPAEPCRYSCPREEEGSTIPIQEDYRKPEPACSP
Method: as §3, §1, §2

K17A = target: T9, K17A; experiment: as above
T9 construct: also called hCD27 K17A
T9 receptor chain: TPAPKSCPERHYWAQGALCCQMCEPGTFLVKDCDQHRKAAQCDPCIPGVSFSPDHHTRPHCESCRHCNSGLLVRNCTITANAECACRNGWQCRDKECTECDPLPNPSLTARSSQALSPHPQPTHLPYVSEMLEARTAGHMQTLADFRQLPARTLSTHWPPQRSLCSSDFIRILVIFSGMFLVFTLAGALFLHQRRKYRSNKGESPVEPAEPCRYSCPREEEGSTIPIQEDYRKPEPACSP
Method: as §3, §1, §2

R37A = target: T10, R37A; experiment: flow cytometry on CHO-K1 transfectants, right sub-column, cell hatched (loss of binding)
T10 construct: also called hCD27 R37A
T10 receptor chain: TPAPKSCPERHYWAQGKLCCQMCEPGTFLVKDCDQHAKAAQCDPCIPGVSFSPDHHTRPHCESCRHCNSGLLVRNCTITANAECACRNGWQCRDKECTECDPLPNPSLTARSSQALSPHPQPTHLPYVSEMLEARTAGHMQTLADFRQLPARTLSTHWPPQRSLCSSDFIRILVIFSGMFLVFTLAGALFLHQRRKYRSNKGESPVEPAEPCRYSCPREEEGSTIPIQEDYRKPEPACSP
Method: as §3, §1, §2

Row | Binder | binding, WT hCD27 = 100 (GM FITC) (Q41A) | binding, WT hCD27 = 100 (GM FITC) (K31A [1]) | binding, WT hCD27 = 100 (GM FITC) (D43A) | binding, WT hCD27 = 100 (GM FITC) (R93A) | binding, WT hCD27 = 100 (GM FITC) (N88A) | binding, WT hCD27 = 100 (GM FITC) (G89A) | binding, WT hCD27 = 100 (GM FITC) (K31A [2]) | binding, WT hCD27 = 100 (GM FITC) (E9A) | binding, WT hCD27 = 100 (GM FITC) (R87A) | binding, WT hCD27 = 100 (GM FITC) (K17A) | binding, WT hCD27 = 100 (GM FITC) (R37A)
1 | B1 | 33.9% | 30.3% | 31% | – | – | – | – | – | – | – | –
2 | B2 | – | – | – | 125% | 162% | 113% | 203% | 96.7% | 153% | 103% | 9.6%
